The record followed here is patent US20180258174A1 (INSITUT NATIONAL DE LA SANTE ET DE LA RECHERCHE MEDICALE …, published 2018).

The target of this experiment is RLIQ108D/CD122 complex (RLIQ108D bound to immobilized CD122) (human, UniProt P14784 27-240, limits assumed). The experiment can be described thus: SPR, sequential binding on immobilized CD122. Here is the method: The SPR experiments were performed with a BIAcore 3000 biosensor (BIAcore, Uppsala, Sweden). Recombinant proteins (hCD122, hCD132, Fc-IL-15Rα) were covalently linked to CM5 sensor chips, and the binding of increasing concentrations of ligands (IL-15, IL-15Q108D, RLI, RLIQ108D, RLIN65K) was monitored. Analysis of sensorgrams was performed using BIAlogue kinetics evaluation software.
In order to inhibit IL-2 and IL-15 dependent effector functions, we developed an original approach targeting the CD122/CD132 dimer, by combining an increased affinity for CD122 and an impaired recruitment of CD132. […] We have thus generated RLIQ108D, a fusion molecule between IL-15Q108D mutein covalently linked to the soluble IL-15Rα sushi domain. As a control, RLIN65K was produced in which CD122 recruitment was abrogated by introducing the N65K mutation in the IL-15 moiety. […] By contrast, RLIN65K was unable to bind CD122 (FIG. 11C). Furthermore, soluble CD132 binding to RLI/CD122 complex was completely abrogated when introducing in RLI the Q108D substitution (RLIQ108D) (FIG. 11E). […] As a control, the binding of the non-blocking CF-1 anti-CD122 mAb was unaffected by either RLIQ108D or RLIN65K (FIG. 12A).

Sequence of RLIQ108D/CD122 complex (RLIQ108D bound to immobilized CD122) (chain, as listed by the source limits assumed, chain 1 of 2): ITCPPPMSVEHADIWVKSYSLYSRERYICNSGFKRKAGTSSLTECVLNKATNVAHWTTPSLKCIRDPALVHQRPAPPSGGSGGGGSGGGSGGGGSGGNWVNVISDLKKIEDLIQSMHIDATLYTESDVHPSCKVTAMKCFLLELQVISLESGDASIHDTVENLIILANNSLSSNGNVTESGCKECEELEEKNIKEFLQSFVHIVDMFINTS
Sequence of RLIQ108D/CD122 complex (RLIQ108D bound to immobilized CD122) (P14784 27-240 limits assumed, chain 2 of 2): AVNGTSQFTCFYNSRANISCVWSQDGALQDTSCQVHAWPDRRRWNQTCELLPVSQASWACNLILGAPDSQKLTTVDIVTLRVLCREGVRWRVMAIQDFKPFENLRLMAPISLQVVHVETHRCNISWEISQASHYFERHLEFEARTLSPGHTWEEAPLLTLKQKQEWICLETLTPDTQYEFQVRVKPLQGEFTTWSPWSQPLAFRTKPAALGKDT

B1: hCD132 (recombinant, soluble CD132 chain) (receptor, human, UniProt P31785 23-262, looked up)
chain: LNTTILTPNGNEDTTADFFLTTMPTDSLSVSTLPLPEVQCFVFNVEYMNCTWNSSSEPQPTNLTLHYWYKNSDNDKVQKCSHYLFSEEITSGCQLQKKEIHLYQTFVVQLQDPREPRRQATQMLKLQNLVIPWAPENLTLHKLSESQLELNWNNRFLNHCLEHLVQYRTDWDHSWTEQSVDYRHKFSLPSVDGQKRYTFRVRSRFNPLCGSAQHWSEWSHPIHWGSNTSKENPFLFALEA
With B1, the binding result is “no binding”.
